{"source": "patent US5958748", "about": "“DNA coding for serine/threonine kinase” (dated 1999)", "binders": {"B1": {"name": "ZIP-kinase LA (variant of mouse ZIP-kinase in which valine and leucine in the leucine zipper domain were substituted with alanine) as chimeric protein with … (enzyme)", "chain": "MSTFRQEDVEDHYEMGEELGSGQFAIVRKCQQKGTGMEYAAKFIKKRRLPSSRRGVSREEIEREVSILREIRHPNIITLHDVFENKTDVVLILELVSGGELFDFLAEKESLTEDEATQFLKQILDGVHYLHSKRIAHFDLKPENIMLLDKHAASPRIKLIDFGIAHRIEAGSEFKNIFGTPEFVAPEIVNYEPLGLEADMWSIGVITYILLSGASPFLGETKQETLTNISAVNYDFDEEYFSSTSELAKDFIRRLLVKDPKRRMTIAQSLEHSWIKVRRREDGARKPERRRLRAARLREYSLKSHSSMPRNTSYASFERFSRVLEDVAAAEQGLRELQRGRRQCRERVCALRAAAEQREARCRDGSAGLGRDLRRLRTELGRTEALRTRAQEEARAALLGAGGLKRRLCRLENRYDALAAQAAAEVQFARDLVRAAEQERLQAECGVR"}}, "biological_target": "fused protein of GAL4 DNA binding domain and mouse ATF4 leucine zipper domain (amino acids 298 to 349 in the … (mouse, UniProt P04386))", "experiment": "yeast two-hybrid, colony formation on histidine-, tryptophan-, leucine- medium", "protocol": "The site to which ZIP-kinase and ATF4 bind was determined using yeast two-hybrid system. First, variants of mouse ZIP-kinase were prepared: 1) amino acids 278 to 448 of ZIP-kinase (ZIP-kinase 278–448); 2) leucine zipper domain of ZIP-kinase (amino acids 398 to 448) (ZIP-kinase LZ); and 3) a variant of ZIP-kinase in which valine and leucine in the leucine zipper domain were substituted with alanine (ZIP-kinase LA). Each of these variants was designed to produce a chimeric protein with GAL4 trans activating domain, and DNA coding for said chimeric protein was inserted into pACT2 and introduced into yeast strain Y190 together with pAS2-1-ATF4 LZ. The strain was cultivated on histidine+, tryptophan–, leucine–, and histidine–, tryptophan–, leucine– selective media.", "data": [{"binder": "B1", "values": [{"measurement": "binding result", "value": "no binding"}]}]}
